From paper PMC11741422 (bioRxiv, 2025)
Several values for one entry are separate records, joined by “and”; a condition that tells them apart may be missing. Identical values can stand only once.

Key:
[1] = molecular target: T1, lipid nanodisc reconstituted yeast V-ATPase Vo proton channel subcomplex (VoND) (Saccharomyces cerevisiae (S288c-type …, UniProt P32563;P25515;P32842;P23968;P32366;Q3E7B6;P0C5R9;P53262)); assay: BLI
[2] = molecular target: T1, lipid nanodisc reconstituted yeast …; assay: cryo-EM structure
[3] = molecular target: yeast Vo proteolipid subunit c (Vma3p) (yeast (Saccharomyces cerevisiae), UniProt P25515); assay: cryo-EM structure
yeast Vo proteolipid subunit c (Vma3p), sequence (P25515 whole entry): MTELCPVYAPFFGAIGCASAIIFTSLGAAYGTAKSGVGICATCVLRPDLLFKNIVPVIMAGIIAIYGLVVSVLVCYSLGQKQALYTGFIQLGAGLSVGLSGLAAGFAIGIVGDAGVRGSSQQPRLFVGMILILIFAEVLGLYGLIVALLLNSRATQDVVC

yeast Vo subunit d = yeast Vo subunit d (yeast (Saccharomyces cerevisiae), UniProt P32366); assay: cryo-EM structure
yeast Vo subunit d, sequence (P32366 whole entry): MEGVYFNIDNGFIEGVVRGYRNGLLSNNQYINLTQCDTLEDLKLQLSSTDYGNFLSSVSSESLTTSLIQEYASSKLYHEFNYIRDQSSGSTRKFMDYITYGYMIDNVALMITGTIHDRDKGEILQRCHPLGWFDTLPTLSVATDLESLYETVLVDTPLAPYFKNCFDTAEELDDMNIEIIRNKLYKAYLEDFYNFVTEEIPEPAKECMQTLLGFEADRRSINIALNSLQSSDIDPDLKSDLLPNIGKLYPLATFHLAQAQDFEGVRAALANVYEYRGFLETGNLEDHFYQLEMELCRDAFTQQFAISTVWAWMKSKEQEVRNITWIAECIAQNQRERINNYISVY

Binder | Kd [1] [nM] | stoichiometry N [2] | binding result [3] | binding result (yeast Vo subunit d)
Nanobody N27 (2WVA7) (VHH) VHH: QVQLQESGGGLVEIGGSLRLSCAASGTLFTFNTMAWYRQAPGKQREFIATITSGGNTNYADSVQGRFTISRGNAKNTLYLQMNSLKPEDTAVYYCNARTMTGPFDYWGQGTQVTVSS | < 0.001 | 8 N27 per VoND | binds | –
Nanobody N125 (1WVA25) (VHH) VHH: QVQLQESGGGLVQPGGSLRLSCVASGFTFSRYAMTWVRQAPGKGLEWVSDISSGGSSTFYTDSVKGRFTISRDNAKNTLYLQMNSLKPDDTAIYFCAKGVPSYYSDYERRSKRYDSRGQGTQVTVSS | 0.013 ± 0.001 | 4 N125 per VoND and 3 N125 per VoND | binds | –
Nanobody N2149 (2WVA149) (VHH) VHH: QVQLQESGGGLVQAGGSLRLSCAVSGSIFSGNAMDWYRQAPGKQRELVASLTSTGSTNYADSVKGRFTITRDNAKNTVYLQMNSLKPEDTAVYYCHALIYRSRLDLAPGNYWGQGTQVTVSS | 0.09 ± 0.023 | – | – | binds
